Results published in patent US20240279288A1, “APPLICATION OF PLANT JAZ PROTEINS AND DERIVED POLYPEPTIDES IN PREVENTION AND TREATMENT OF HUMAN AND ANIMAL TUMORS” (ANYANG INSTITUTE OF SINO-COTTON INDUSTRY INNOVATION, priority 2021, published 2024).

B1: GhJAZ1 after deletion of NT domain: GhJAZ1 mutant with NT domain deleted, protein sequence SEQ ID No. 83 (protein)
chain: MSSCSESTAMKPARSPEANGTPVVPPPTMNLFPLNDKSDDVCGRNGGNPKNLTSMDLFPQQAGLASKDDSPNKLEPQTAPMTIFYGGQVIVFNDFPANKAKEIMLLASNSSSQSNNSFNPIPFTSSIARSPIESSIGVPPTSKPVHPAQRAVPGDLPIARRASLHRFLEKRKDRITAKAPYQINNSAAAPSLSGDNKSWLGLAAQSP
B2: GhJAZ1: cotton JAZ1 protein, gene number Gh_A05G0260, sequence SEQ ID No. 4; prokaryotically expressed with His tag, about 30 KD (protein)
chain: MSSCSESTAMKPARSPEKPSFAQTCNLLSQYLKEKGSFGDLSLGMTCNVEANGTPVVPPPTMNLFPLNDKSDDVCGRNGGNPKNLTSMDLFPQQAGLASKDDSPNKLEPQTAPMTIFYGGQVIVFNDFPANKAKEIMLLASNSSSQSNNSFNPIPFTSSIARSPIESSIGVPPTSKPVHPAQRAVPGDLPIARRASLHRFLEKRKDRITAKAPYQINNSAAAPSLSGDNKSWLGLAAQSP
modifications: His tag
notes: prokaryotically expressed with His tag, about 30 KD

Legend:
[1] = biological target: c-Myc (Homo sapiens, UniProt P01106); experiment: Yeast two hybrid with c-Myc; assay type: binding; parameters: with the full length of c-Myc and NMYC, respectively; expressed in transfected cells; host or cells: yeast Y2HGold
Chain of c-Myc (P01106 whole entry): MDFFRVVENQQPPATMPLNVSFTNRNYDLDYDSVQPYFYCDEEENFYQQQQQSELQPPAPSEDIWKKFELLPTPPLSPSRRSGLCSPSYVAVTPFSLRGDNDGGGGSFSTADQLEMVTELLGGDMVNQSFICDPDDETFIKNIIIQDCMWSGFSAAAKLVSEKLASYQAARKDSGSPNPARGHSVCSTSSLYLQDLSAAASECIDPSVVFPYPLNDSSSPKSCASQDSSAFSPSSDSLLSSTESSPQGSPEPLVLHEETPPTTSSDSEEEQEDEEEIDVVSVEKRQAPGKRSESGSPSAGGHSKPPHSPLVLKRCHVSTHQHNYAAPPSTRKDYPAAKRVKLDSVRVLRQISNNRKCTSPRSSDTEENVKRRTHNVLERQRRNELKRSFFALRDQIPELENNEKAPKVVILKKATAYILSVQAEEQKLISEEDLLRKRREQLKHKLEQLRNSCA
Text: […]

[2] = test system: GhCOI1; experiment: Yeast two hybrid with GhCOI1; assay type: binding, cotton; settings: in the presence of JA-Ile
Chain of GhCOI1 (as listed by the source): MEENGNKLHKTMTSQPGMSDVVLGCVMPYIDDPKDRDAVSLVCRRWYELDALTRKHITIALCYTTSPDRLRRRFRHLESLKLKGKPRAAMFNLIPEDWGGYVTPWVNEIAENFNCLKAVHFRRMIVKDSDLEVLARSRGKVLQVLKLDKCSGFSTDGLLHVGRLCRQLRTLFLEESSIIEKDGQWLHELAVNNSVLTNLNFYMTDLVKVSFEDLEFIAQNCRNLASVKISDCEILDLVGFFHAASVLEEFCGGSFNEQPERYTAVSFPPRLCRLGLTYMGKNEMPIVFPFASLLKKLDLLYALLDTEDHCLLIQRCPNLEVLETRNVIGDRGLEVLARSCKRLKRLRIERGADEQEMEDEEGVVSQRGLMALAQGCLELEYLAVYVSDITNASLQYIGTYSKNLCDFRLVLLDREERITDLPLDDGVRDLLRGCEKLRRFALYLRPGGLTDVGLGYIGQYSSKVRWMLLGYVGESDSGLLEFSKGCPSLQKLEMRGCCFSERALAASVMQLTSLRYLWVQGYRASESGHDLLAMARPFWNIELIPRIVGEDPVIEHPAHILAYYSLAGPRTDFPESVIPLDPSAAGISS
Method: The study on Arabidopsis had shown that the inhibition of JAZ protein on JA signaling was mainly achieved by inhibiting the transcription factor function of MYC, which had been experimentally verified by us in cotton. Based on the phylogenetic tree of Arabidopsis and cotton JAZs, we screened 6 cotton JAZs (GhJAZ1, GhJAZ7, GhJAZ9, GhJAZ10, GhJAZ11 and GhJAZ31), which were analyzed with GhMYC2, GhNINJA, GhTPL, GhHDA6, and GhCOI1 for yeast two hybrid. The amino acid sequence of GhJAZ1 was set forth in SEQ ID No. 4, and the corresponding encoding gene sequence was set forth in SEQ ID No. 39; the amino acid sequence of GhJAZ7 was set forth in SEQ ID No. 7, and the corresponding encoding gene sequence was set forth in SEQ ID No. 42; the amino acid sequence of GhJAZ9 was set forth in SEQ ID No. 2, and the corresponding encoding gene sequence was set forth in SEQ ID No. 37; the amino acid sequence of GhJAZ10 was set forth in SEQ ID No. 3, and the corresponding encoding gene sequence was set forth in SEQ ID No. 38; the amino acid sequence of GhJAZ11 was set forth in SEQ ID No. 5, and the corresponding encoding gene sequence was set forth in SEQ ID No. 40; and the amino acid sequence of GhJAZ31 was set forth in SEQ ID No. 9, and the corresponding encoding gene sequence was set forth in SEQ ID No. 44. The amino acid sequence of GhMYC2 was set forth in SEQ ID No. 71, and the corresponding encoding gene sequence was set forth in SEQ ID No. 72; the amino acid sequence of GhNINJA was set forth in SEQ ID No. 73, and the corresponding encoding gene sequence was set forth in SEQ ID No. 74; the amino acid sequence of GhTPL was set forth in SEQ ID No. 75, and the corresponding encoding gene sequence was set forth in SEQ ID No. 76; the amino acid sequence of GhHDA6 was set forth in SEQ ID No. 77, and the corresponding encoding gene sequence was set forth in SEQ ID No. 78; and the amino acid sequence of GhCOI1 was set forth in SEQ ID No. 79, and the corresponding encoding gene sequence was set forth in SEQ ID No. 80. […]

| Molecule | interaction with c-Myc [1] | interaction with GhCOI1 [2] |
| --- | --- | --- |
| B1 | significantly weakened | significantly weakened |
| B2 | interacted | interacted |
